Experimental data published in US20160369009A1 (published 2016).
Values belong to the binder of their own block, whether it stands above or below them.

Columns and labels:
human kallikrein-2 (hK2) [1] = molecular target: T1, human kallikrein-2 (hK2) (human, UniProt P20151 25-261); experiment: SPR, Biacore 3000, hK2 on CM4 chip, mean KD from kon and koff
T1 construct: The mature protein is said to be underlined, but the underlining is not recoverable from the text; In the assay hK2 was amine-coupled to a CM4 chip; also called human glandular kallikrein 2; antigen hK2
Protocol: (§1) All binding experiments were performed on CM4 chip on a Biacore 3000 instrument. The chip and all the reagents needed for activation, immobilization, deactivation, binding and regeneration were purchased from GE Healthcare and used according to the guidelines from the manufacturer.

human kallikrein-2 (hK2) [2] = molecular target: T1, human kallikrein-2 (hK2); experiment: SPR, Biacore 3000, hK2 on CM4 chip, mean of channels fc2 and fc3
Protocol: as §1
(§2) The dissociation phase data was fitted and the dissociation rate constants (koff) were estimated (see Table 2).

human kallikrein-2 (hK2) [3] = molecular target: T1, human kallikrein-2 (hK2); experiment: SPR, Biacore 3000, hK2 on CM4 chip, antibody 6.25-100 nM, mean of 18/18 fitted experiments
Protocol: as §1
(§3) In order to estimate the association rate constants, the dissociation rate constants (Table 2) were used in the fitted equations.
(§4) All fitted data was used in order to calculate an average value of the association rate constant and the standard deviation for each antibody (see Table 3).

human kallikrein-2 (hK2) [4] = molecular target: T1, human kallikrein-2 (hK2); experiment: SPR, Biacore 3000, hK2 amine-coupled on CM4 chip, channel fc2, 50 nM antibody, 480 min dissociation
Protocol: as §1, §2

human kallikrein-2 (hK2) [5] = molecular target: T1, human kallikrein-2 (hK2); experiment: SPR, Biacore 3000, hK2 amine-coupled on CM4 chip, channel fc3, 50 nM antibody, 480 min dissociation
Protocol: as §1, §2

human kallikrein-2 (hK2) [6] = molecular target: T1, human kallikrein-2 (hK2); experiment: SPR, Biacore 3000, hK2 on CM4 chip, antibody 6.25-100 nM, mean of 17/18 fitted experiments
Protocol: as §1, §3, §4

human kallikrein-2 (hK2) [7] = molecular target: T1, human kallikrein-2 (hK2); experiment: SPR, Biacore 3000, hK2 on CM4 chip, antibody 6.25-100 nM, mean of 15/18 fitted experiments
Protocol: as §1, §3, §4

T1 sequence (P20151 25-261 limits assumed): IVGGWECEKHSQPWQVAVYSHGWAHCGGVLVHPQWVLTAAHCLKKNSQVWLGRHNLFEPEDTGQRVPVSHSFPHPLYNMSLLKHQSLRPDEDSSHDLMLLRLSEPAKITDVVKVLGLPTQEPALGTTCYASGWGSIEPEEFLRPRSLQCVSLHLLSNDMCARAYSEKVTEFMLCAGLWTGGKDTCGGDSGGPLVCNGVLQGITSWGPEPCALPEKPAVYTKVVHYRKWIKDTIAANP

Kd (human kallikrein-2 (hK2) [1]): 0.54 nM
koff (human kallikrein-2 (hK2) [2]): 5.7e-05 s⁻¹
kon (human kallikrein-2 (hK2) [3]): 111000 M⁻¹ s⁻¹
koff (human kallikrein-2 (hK2) [4]): 5.8e-05 s⁻¹
koff (human kallikrein-2 (hK2) [5]): 5.5e-05 s⁻¹
B1: h11B6-DFO (humanised 11B6 conjugated with deferoxamine) (antibody, human IgG1, kappa, V domains shown)
VH: QVQLQESGPGLVKPSDTLSLTCAVSGNSITSDYAWNWIRQPPGKGLEWIGYISYSGSTTYNPSLKSRVTMSRDTSKNQFSLKLSSVTAVDTAVYYCATGYYYGSGFWGQGTLVTVSS
VL: DIVLTQSPDSLAVSLGERATINCKASESVEYFGTSLMHWYQQKPGQPPKLLIYAASNRESGVPDRFSGSGSGTDFTLTISSLQAEDVAVYYCQQTRKVPYTFGQGTKLEIKR
modifications: DFO (deferoxamine) chelator coupled; residues and chain not stated
notes: This is the h11B6 IgG1/kappa carrying DFO; also called h1166-DFO; DFO-h11B6

Kd (human kallikrein-2 (hK2) [1]): 0.93 nM
koff (human kallikrein-2 (hK2) [2]): 0.000127 s⁻¹
kon (human kallikrein-2 (hK2) [6]): 182000 M⁻¹ s⁻¹
koff (human kallikrein-2 (hK2) [4]): 6.3e-05 s⁻¹
koff (human kallikrein-2 (hK2) [5]): 0.000191 s⁻¹
B2: h11B6-DTPA (humanised 11B6 conjugated with DTPA chelator) (antibody, V domains shown)
VH: B1 VH
VL: B1 VL
modifications: DTPA chelator coupled; residues and chain not stated
notes: This is the h11B6 IgG1/kappa carrying a chelator; also called h1166-DTPA; H1166-DTPA

Kd (human kallikrein-2 (hK2) [1]): 0.65 nM
koff (human kallikrein-2 (hK2) [2]): 6.7e-05 s⁻¹
kon (human kallikrein-2 (hK2) [7]): 117000 M⁻¹ s⁻¹
koff (human kallikrein-2 (hK2) [4]): 6.4e-05 s⁻¹
koff (human kallikrein-2 (hK2) [5]): 6.9e-05 s⁻¹
B3: humanised 11B6 antibody (h11B6), IgG1/kappa (antibody, V domains shown)
VH: B1 VH
VL: B1 VL
notes: Expressed transiently in HEK293 cells; also called h1186

Kd (human kallikrein-2 (hK2) [1]): 0.19 nM
koff (human kallikrein-2 (hK2) [2]): 3.4e-05 s⁻¹
kon (human kallikrein-2 (hK2) [3]): 248000 M⁻¹ s⁻¹
koff (human kallikrein-2 (hK2) [4]): 1.9e-05 s⁻¹
koff (human kallikrein-2 (hK2) [5]): 4.9e-05 s⁻¹
B4: murine 11B6 antibody (m11B6), parent murine anti-hK2 monoclonal antibody (antibody, mouse IgG1, kappa, V domains shown)
VH: DVQLQESGPGLVKPSQSLSLTCTVTGNSITSDYAWNWIRQFPGNRLEWMGYISYSGSTTYSPSLKSRFSITRDTSKNQFFLQLNSVTPEDTATYFCATGYYYGSGFWGQGTLVTVSS
VL: DIVLTQSPASLAVSLGQRATISCRASESVEYFGTSLMHWYRQKPGQPPKLLIYAASNVESGVPARFSGSGSGTDFSLNIQPVEEDDFSMYFCQQTRKVPYTFGGGTKLEIKR
notes: Whole murine IgG obtained from the University of Turku; also called mAb 11B6; ml 1B6
